Test system: A549 cells
Assay: MTT cell viability, A549
Type: cell-based, human
Conditions: AChE-ID media, 48 h, A549; Fig. 7A
Experimental: Human NSCLC cell lines, A549 (ATCC CCL‐185) and H1299 (ATCC CRL‐5803), were purchased from the American Type Culture Collection (ATCC, Manassas, VA, USA). Cells were seeded as we reported earlier in 5 mL HyClone Dulbecco's modified Eagle's medium/nutrient mixture F‐12 (DMEM/F12) (GE Healthcare Life Sciences, Pittsburgh, PA, USA), supplemented with 10% Fetalgro bovine growth serum (FBS; RMBIO, Missoula, MT, USA), 50 U·mL^−1 penicillin, and […] streptomycin (Invitrogen, Life Technologies, Carlsbad, CA, USA) in 25‐cm^2 tissue culture flasks, and allowed to grow overnight in an incubator at 37 °C, 95% humidity, and 5% CO2. The cells were counted after trypan blue staining, with a hemocytometer.
The 3‐(4,5‐dimethylthiazol‐2‐yl)‐2,5‐diphenyl‐tetrazolium bromide (MTT) reduction assay (Sigma‐Aldrich), used to measure cell viability, was carried out as we reported earlier. […] The absorbance was measured at 570 nm in a plate reader. […]
Conditioned media were immunodepleted (ID) according to the methods previously described and our recently published report. […] The ID media were then carefully removed and analyzed for the presence of the target protein or peptide by ELISA. The same amount of protein (3 µL of 600 µg·mL^−1 total protein) of each sample was analyzed in the experiments. […]

B1: acetylcholinesterase (protein)
chain: EGREDAELLVTVRGGRLRGIRLKTPGGPVSAFLGIPFAEPPMGPRRFLPPEPKQPWSGVVDATTFQSVCYQYVDTLYPGFEGTEMWNPNRELSEDCLYLNVWTPYPRPTSPTPVLVWIYGGGFYSGASSLDVYDGRFLVQAERTVLVSMNYRVGAFGFLALPGSREAPGNVGLLDQRLALQWVQENVAAFGGDPTSVTLFGESAGAASVGMHLLSPPSRGLFHRAVLQSGAPNGPWATVGMGEARRRATQLAHLVGCPPGGTGGNDTELVACLRTRPAQVLVNHEWHVLPQESVFRFSFVPVVDGDFLSDTPEALINAGDFHGLQVLVGVVKDEGSYFLVYGAPGFSKDNESLISRAEFLAGVRVGVPQVSDLAAEAVVLHYTDWLHPEDPARLREALSDVVGDHNVVCPVAQLAGRLAAQGARVYAYVFEHRASTLSWPLWMGVPHGYEIEFIFGIPLDPSRNYTAEEKIFAQRLMRYWANFARTGDPNEPRDPKAPQWPPYTAGAQQYVSLDLRPLEVRRGLRAQACAFWNRFLPKLLSATDTLDEAERQWKAEFHRWSSYMVHWKNQFDHYSKQDRCSDL
- increase in cell viability upon AChE immunodepletion: ~ 1.45 fold
